Patent US20190388532A1 (ENTEROME S A, published 2019)

B1: IL13RA2-B (antigenic peptide FLPFGFILV, SEQ ID No 31) (peptide)
peptide: FLPFGFILV
notes: also called candidate peptide; IL13RA2-B pAg

Target: T1, HLA-A*0201 molecule expressed by T2 cells (human)
T1 construct: MHC class I molecule on T2 cells
Experiment: T2 cell HLA-A*0201 surface expression assay, flow cytometry; relative affinity = peptide concentration inducing 20% HLA-A*0201 expression / that of reference peptide HIV pol 589-597
Description: T2 cells (2.10⁵ cells per well) were incubated with decreasing conceontrations of peptides from 100 μM to 0.1 μM in a AIMV medium supplemented with 100 ng/μl of human β2 m at 37° C. for 16 hours. Cells were then washed two times and marked with the anti-HLA-A2 antibody coupled to PE (clone BB7.2, BD Pharmagen).
The experimental protocol, materials and methods correspond to those outlined in Example 3, with the only difference that the above mentioned antigenic peptides were used.

| Binder | In vitro binding affinity |
| --- | --- |
| ILPFGFILA [peptide 1I9A] | 2.22 |
| B1 | 0.49 |
| FLPFGFILM [peptide 1F9M] | 2.62 |
| ALPFGFILV (also called IL13RA2-ST) [peptide 1A9V (Eguchi et al. 2006)] | 3.06 |
